This series is described as follows: self-splicing fitness, log relative to wild type (ln ratio); higher = more splicing; Tetrahymena group I intron in knt gene, E. coli kanamycin selection, DiMSum; sequences stand for … in CUCUCU…GGAGGGAAAAGUUAUCAGGCAUGCACCUGGUAGCUAGUCUUUAAACCAAUAGAUUGCAUCGGUUUAAAAGGCAAGACCGUCAAAUUGCGGGAAAGGGGUCAACAGCCGUUCAGUACCAAGUCUCAGGGGAAACUUUGAGAUGGCCUUGCAAAGGGUAUGGUAAUAAGCUGACGGACAUGGUCCUAACCACGCAGCCAAGUCCUAAGUCAACAGAUCUUCUGUUGAUAUGGAUGCAGUUCACAGACUAAAUGUCGGUCGGGGAAGAUGUAUUCUUCUCAUAAGAUAUAGUCGGACCUCUCCUUAAUGGGAGCUAGCGGAUGAAGUGAUGCAACACUGGAGCCGCUGGGAACUAAUUUGUAUGCGAAAGUAUAUUGAUUAGUUUUGGAGUACUCGUGGUCG
In a few lines: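 Six replicate transformations of E. coli BL21(DE3) with a pET-22b(+) library were grown overnight at 37°C or 30°C. The library randomised all eight P1ex-region intron nucleotides, the intron lying in the knt kanamycin-resistance gene, and plates were LB agar with or without 25 μg/mL kanamycin plus 100 μg/mL carbenicillin, 50 μM IPTG and 0.2% rhamnose. Pooled colonies were amplicon-sequenced on an Illumina HiSeq 2500, and fitness is the DiMSum error-weighted combination of wild-type-normalised replicate fold changes, kanamycin versus none.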

± gives the uncertainty stated by the source.

As for GUGAAGCAAUAUUACGGCCG, the “self-splicing fitness (ln)” value was -1.03 ± 0.13 (30 °C) and -0.435 ± 0.17 (37 °C). The matching figures for UUAGAGCAAUAUUACGAACA: -2.48 ± 0.19 and -0.84 ± 0.19. For GUCAAGCAAUAUUACGAAGA, the “self-splicing fitness (ln)” value (30 °C) is -3.88 ± 0.28. As for AGGGAGCAAUAUUACGAUCU, the “self-splicing fitness (ln)” value by setting is: (30 °C) -2.71 ± 0.23; (37 °C) -1.77 ± 0.17.

Regarding GCGUAGCAAUAUUACGAACC, the “self-splicing fitness (ln)” value (37 °C) was -1.63 ± 0.36. Take AACAAGCAAUAUUACGCCCA: the “self-splicing fitness (ln)” value is, setting by setting: (30 °C) -0.0653 ± 0.094; (37 °C) -0.00342 ± 0.11. The matching figures for UUCUAGCAAUAUUACGUCAG: -3.16 ± 0.37 and -1.75 ± 0.26. The matching figures for AAGAAGCAAUAUUACGGGUA: -2.35 ± 0.16 and -0.422 ± 0.12. Turning to AUGAAGCAAUAUUACGGGGG, the “self-splicing fitness (ln)” value is -3.12 ± 0.24 (30 °C) and -2.49 ± 0.28 (37 °C). As to GUAUAGCAAUAUUACGCGUA, the “self-splicing fitness (ln)” value by setting is: (30 °C) -2.69 ± 0.29; (37 °C) -1.41 ± 0.22. For CUACAGCAAUAUUACGUGGG, the “self-splicing fitness (ln)” value is -4.01 ± 0.2 (30 °C) and -2.61 ± 0.15 (37 °C). The matching figures for CUGAAGCAAUAUUACGGAGU: -3.2 ± 0.37 and -2.33 ± 0.26. Taken in the same sequence, the figures for CACAAGCAAUAUUACGGGUG were -3.99 ± 0.1 and -2.94 ± 0.11. The matching figures for UGUUAGCAAUAUUACGCUUU: -2.85 ± 0.2 and -1.32 ± 0.14.

For the sequence AGUAAGCAAUAUUACGCGAA, the “self-splicing fitness (ln)” value is -2.57 ± 0.12 (30 °C) and -1.42 ± 0.19 (37 °C).

In the case of GCGUAGCAAUAUUACGACCG, the “self-splicing fitness (ln)” value (30 °C) was -1.5 ± 0.16 and the “self-splicing fitness (ln)” value (37 °C) was -0.0305 ± 0.2. The matching figures for AUACAGCAAUAUUACGUUUU: -2.19 ± 0.12 and -2.09 ± 0.15. For the sequence CGGUAGCAAUAUUACGUCAA, for the setting “30 °C”, the “self-splicing fitness (ln)” value is -1.08 ± 0.29.

For UCAGAGCAAUAUUACGGACG, the “self-splicing fitness (ln)” value (30 °C) is -3.67 ± 0.44 and the “self-splicing fitness (ln)” value (37 °C) is -1.58 ± 0.2. With UUGAAGCAAUAUUACGAUAG, the “self-splicing fitness (ln)” value turned out to be 0.155 ± 0.071 (30 °C) and 0.398 ± 0.095 (37 °C). Regarding CCCGAGCAAUAUUACGAGUU, the “self-splicing fitness (ln)” value is, setting by setting: (30 °C) -4.2 ± 0.19; (37 °C) -2.29 ± 0.17. As for CAUAAGCAAUAUUACGUCUU, the “self-splicing fitness (ln)” value is -3.71 ± 0.17 (30 °C) and -2.41 ± 0.19 (37 °C). Regarding CCAUAGCAAUAUUACGACUG, the “self-splicing fitness (ln)” value reads like this: (30 °C) -0.667 ± 0.071; (37 °C) -0.0816 ± 0.087. The matching figures for UGCAAGCAAUAUUACGAGCA: -2.28 ± 0.15 and -1.39 ± 0.12.

Take CGCGAGCAAUAUUACGCUUC: the “self-splicing fitness (ln)” value (37 °C) was -1.44 ± 0.45. For the sequence UGUGAGCAAUAUUACGUGCA, the “self-splicing fitness (ln)” value is -1.1 ± 0.14 (30 °C) and -0.55 ± 0.16 (37 °C). Taken in the same sequence, the figures for AUGUAGCAAUAUUACGGUUG were -3.62 ± 0.2 and -1.99 ± 0.19. As to UAUGAGCAAUAUUACGCAUA, the “self-splicing fitness (ln)” value (37 °C) is -2.21 ± 0.42. UGCCAGCAAUAUUACGUCUG: the “self-splicing fitness (ln)” value (30 °C) is -2.57 ± 0.15 and the “self-splicing fitness (ln)” value (37 °C) was -1.48 ± 0.16. Consider UCUCAGCAAUAUUACGAGAU, for which the “self-splicing fitness (ln)” value by setting is: (30 °C) -4.62 ± 0.46; (37 °C) -2.85 ± 0.35. Turning to GAUCAGCAAUAUUACGAAGU, the “self-splicing fitness (ln)” value was -1.17 ± 0.12 (30 °C) and -0.265 ± 0.13 (37 °C).

As to ACAUAGCAAUAUUACGGCUC, the “self-splicing fitness (ln)” value runs as follows: (30 °C) -0.967 ± 0.092; (37 °C) -0.28 ± 0.12. Take UUAUAGCAAUAUUACGUUAA: the “self-splicing fitness (ln)” value is, setting by setting: (30 °C) -2.07 ± 0.29; (37 °C) -1.61 ± 0.22. Taken in the same sequence, the figures for UUACAGCAAUAUUACGGCGG were -0.579 ± 0.087 and 0.426 ± 0.13. The matching figures for GCCAAGCAAUAUUACGCUGC: -3.01 ± 0.27 and -2.04 ± 0.28. Taken in the same sequence, the figures for GAACAGCAAUAUUACGGCAG were -2.31 ± 0.12 and -3.02 ± 0.24. As for GAGCAGCAAUAUUACGUAUG, the “self-splicing fitness (ln)” value reads like this: (30 °C) -2.86 ± 0.14; (37 °C) -2.5 ± 0.2. UGCAAGCAAUAUUACGAUCU: the “self-splicing fitness (ln)” value was -0.477 ± 0.091 (30 °C) and -0.822 ± 0.1 (37 °C). As to CGCAAGCAAUAUUACGAGCA, the “self-splicing fitness (ln)” value is -0.102 ± 0.1 (30 °C) and 0.368 ± 0.14 (37 °C).

For ACCUAGCAAUAUUACGGGGA, the “self-splicing fitness (ln)” value (30 °C) was -1.11 ± 0.08 and the “self-splicing fitness (ln)” value (37 °C) is -0.794 ± 0.096.

For GGCAAGCAAUAUUACGCUAU, the “self-splicing fitness (ln)” value runs as follows: (30 °C) -0.0842 ± 0.13; (37 °C) -1.13 ± 0.11. The matching figures for CGGUAGCAAUAUUACGAUCC: -1.23 ± 0.22 and -1.56 ± 0.34. The matching figures for UAAUAGCAAUAUUACGACUC: -3.23 ± 0.25 and -1.03 ± 0.23. The matching figures for CGCUAGCAAUAUUACGAUAU: -3.98 ± 0.36 and -2.63 ± 0.25. Regarding CAAAAGCAAUAUUACGCCGU, the “self-splicing fitness (ln)” value (30 °C) was -2.08 ± 0.16 and the “self-splicing fitness (ln)” value (37 °C) is -1.32 ± 0.18. Taken in the same sequence, the figures for CGAGAGCAAUAUUACGCGUA were -3.31 ± 0.19 and -2.67 ± 0.29. The matching figures for AAGUAGCAAUAUUACGGUCG: -2.14 ± 0.13 and -1.03 ± 0.12. For GGACAGCAAUAUUACGCUGA, the “self-splicing fitness (ln)” value was -2.21 ± 0.16 (30 °C) and -1.51 ± 0.15 (37 °C). As to GCUAAGCAAUAUUACGUAAG, the “self-splicing fitness (ln)” value by setting is: (30 °C) -0.616 ± 0.11; (37 °C) 0.0143 ± 0.15. The matching figures for CCCGAGCAAUAUUACGCGUC: -5.24 ± 0.32 and -2.91 ± 0.23.

Regarding CAAAAGCAAUAUUACGCUGU, the “self-splicing fitness (ln)” value (30 °C) was -3.49 ± 0.25 and the “self-splicing fitness (ln)” value (37 °C) was -1.73 ± 0.18. On to GCCAAGCAAUAUUACGAGCG, for which the “self-splicing fitness (ln)” value is, setting by setting: (30 °C) -2.34 ± 0.12; (37 °C) -1.08 ± 0.13. The matching figures for GCUCAGCAAUAUUACGUGAC: -1.88 ± 0.092 and -1.03 ± 0.11. In the case of ACUAAGCAAUAUUACGGAAC, the “self-splicing fitness (ln)” value by setting is: (30 °C) -3.33 ± 0.29; (37 °C) -2.77 ± 0.32. Taken in the same sequence, the figures for GUAAAGCAAUAUUACGGACC were -1.15 ± 0.13 and -0.652 ± 0.24. Regarding UUGAAGCAAUAUUACGGCUC, the “self-splicing fitness (ln)” value (30 °C) was -3.8 ± 0.25 and the “self-splicing fitness (ln)” value (37 °C) was -1.42 ± 0.19. For UCUUAGCAAUAUUACGCAGA, the “self-splicing fitness (ln)” value is -1.55 ± 0.46 (30 °C) and -1.36 ± 0.29 (37 °C). On to CGGCAGCAAUAUUACGUCCG, for which the “self-splicing fitness (ln)” value was -2.03 ± 0.12 (30 °C) and -2.92 ± 0.24 (37 °C).

Consider AUAUAGCAAUAUUACGUCGC, for which the “self-splicing fitness (ln)” value runs as follows: (30 °C) -2.48 ± 0.27; (37 °C) -1.31 ± 0.37. For the sequence GACCAGCAAUAUUACGCGUC, the “self-splicing fitness (ln)” value was -4.75 ± 0.38 (30 °C) and -2.54 ± 0.22 (37 °C). As to GAGUAGCAAUAUUACGAGUU, the “self-splicing fitness (ln)” value by setting is: (30 °C) -2.27 ± 0.095; (37 °C) -0.98 ± 0.1.

Values taken from the supplement of paper PMC7877785.
